These results are taken from PMC3013012.

The target of assay [1] is SETDB1 peptide RQVAVKme3STRGFALKme3STHGIAIKme3STN (human).
The target in assay [2] is SETDB1 peptide RQVAVKme2STRGFALKme2STHGIAIKme2STN (human).

In the case of “Cbx7 chromodomain, Cbx7-(8–62) (from UniProt O95931 8-62) (domain or fragment)”, the Kd in assay [1] was 1.2 µM; in assay [2], 15 µM.
On to “Cbx8 chromodomain, Cbx8-(8–61) (from UniProt Q9HC52 8-61) (domain or fragment)”, for which, in assay [2], the Kd came to 180 µM.

A word on the Kd: it is the free concentration of one partner at which half of the binding sites on the other are occupied at equilibrium, for simple one-to-one binding.
